Laboratory results reported in US12312397B2, “Anti-O2 antibodies and uses thereof” (priority 2016, dated 2025).

What was measured:
[1] = tested on: O2 LPS activation of NF-κB in RAW264.7-lux cells; assay: LPS neutralization assay (NF-κB luciferase, RAW264.7-lux), O2 LPS; assay type: cell-based, murine; design: key to LPS Neut O2: +++: Strongly positive activity; +: Positive activity; +/−: Somewhat positive depending upon the test conditions
Method in brief: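 Serially diluted mAbs (human IgG1) pre-mixed 1:1 with LPS at 4 °C for 1 hr, then diluted 1:10 onto RAW264.7-lux cells carrying an NF-κB-driven firefly luciferase; 2.5 h at 37 °C. Luminescence read; % inhibition relative to no-antibody and negative-control mAb wells.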

[2] = tested on: KPC strain Kp961842_O2; assay: Lethal pneumonia model, KPC strain Kp961842_O2; assay type: in vivo, Klebsiella pneumoniae; settings: C57/BL6 mice, 2e8 CFU; mAb 2 mg/kg 1 hour post infection; survival
Protocol: (§1) C57/BL6 mice were obtained from Jackson Laboratories and maintained in a special pathogen-free facility. All animal experiments were conducted in accordance with Institutional Animal Care and Use Committee (IACUC) protocol and guidance. K. pneumoniae strains were grown on agar plates overnight and diluted in saline at proper concentration. The inoculum titer was determined by plating a serial dilution of bacteria onto agar plates prior to and post challenge. In acute pneumonia models, C57/BL6 mice were inoculated with 1e4 to 2e8 colony-forming units (CFU) of K. pneumoniae clinical isolates in 50 μl saline intranasally. Anti-K pneumoniae monoclonal antibodies (mAbs) and human IgG1 control antibodies were given 1-24 hour post bacterial challenge (therapeutic dosing). Mouse survival was monitored daily until up to day 8. Survival data of representative experiments were plotted in Graphpad Prism software.
(§2) Mice were challenged with 2e8 CFU of Klebsiella pneumoniae Carbanpenemase (KPC) strain Kp961842_O2 or with 3e8 CFU of KPC strain Kp977778_O2, followed by the administration of anti-O2 mAbs. When administered at a concentration of 2 mg/kg 1 hour post bacterial infection, Class III anti-O2 LPS mAbs KPN42, KPN179-IgG1, and KPS44v2017 protected mice from lethal bacterial challenge with the multi-drug resistant KPC strains Kp961842_O2 (FIG. 6, left panel, and FIG. 10) and Kp977778_O2 (FIG. 6B, right panel).

[3] = tested on: KPC strain Kp977778_O2; assay: Lethal pneumonia model, KPC strain Kp977778_O2; assay type: in vivo, Klebsiella pneumoniae; settings: C57/BL6 mice, 3e8 CFU; mAb 2 mg/kg 1 hour post infection; survival
Protocol: as §1, §2

[4] = tested on: K. pneumoniae O2; assay: Mouse protection models (O2), Table 7 summary; assay type: in vivo, Klebsiella pneumoniae; design: key: +++: Strongly positive activity; +: Positive activity; +/−: Somewhat positive depending upon the test conditions; settings: mouse pneumonia models
Protocol: As described in more detail in below, anti-O2 LPS mAbs were tested for: 1) binding to O1 and O2 LPS (see Example 5); 2) LPS neutralization (LPS-Neut) against O1 and O2 LPS (see Example 7); 3) OPK against capsule mutant strain 43816ΔcpsB lux (O1) and 8570ΔcpsB lux (O2) (see Example 8); and 4) protective activity in pneumonia models (see Example 9). O2 LPS mAbs were subsequently divided into three classes based on their in vitro activities. Class I mAbs were characterized as Binding (O1+O2+)/OPK (O1−O2+); Class 2 mAbs were characterized as Binding (O1+O2+)/OPK (O1+O2+); and Class III mAbs were characterized as Binding (O1±O2+)/OPK (O1−O2+).
as §1, §2

[5] = tested on: antibiotic resistant Klebsiella pneumoniae strains; assay type: in vivo
Protocol: as §1
The lethal pneumonia model as described in Example 9 was used to assess the activity of anti-O2 LPS antibodies in combination with an antibiotic. Both antibiotic and antibody were administered 1 hour after bacterial infection.
50 mg/kg of meropenem and 2 mg/kg of antibody were administered at 1, 2, 4, 6, and 24 hour after bacterial infection, as described for the antibody and antibiotic combination studies in Examples 9 and 10.

B1: KPN179: Class III anti-O2 antigen human mAb; VH SEQ ID NO: 53, VL SEQ ID NO: 54 (antibody, V domains shown)
VH: EVQVVESGGGLVKPGGSLRLSCAASGFTFNNAWMNWVRQAPGKGLEWVGRIKRKADGETTDYPASVKGRFTVSRDDSKNTIYLQMNSLKTEDTAIYYCTTRIVTTNDYWGQGTLVTVSS
VL: QSALTQPPSVSGSPGQSVTISCTGTSSDVGYYDYVSWYQQHHPGKAPKHMIYDVNKRPSGVPDRFSGSKSGNTASLTISGLQAEDEADYYCCSYAGGDTFVFGTGTKVTVL
modifications: Description of Artificial Sequence: SyntheticKPN179 VH polypeptide; Description of Artificial Sequence: SyntheticKPN179 VL polypeptide
In the case of B1, the “LPS Neut O2” value ([1]; Table 7 summary) is reported as “+/−”, the “neutralization of LPS-O2” value ([1]; secondary screening) is reported as “did not show LPS-neutralizing activity” and the “protection from lethal bacterial challenge, Kp961842_O2” value [2] is reported as “protected”. For the same molecule, the “protection from lethal bacterial challenge, Kp977778_O2” value [3] was “protected”, the “Mouse protection models (O2)” value [4] was “+++” and the “time post infection up to which combination with meropenem protects better than control mAb and meropenem” value ([5]; 50 mg/kg meropenem + 2 mg/kg antibody given 1, 2, 4, 6, 24 hour after infection, mice) was “up to 4 hours”. For the same molecule, the “protection of combination with meropenem compared to antibody or antibiotic monotherapy” value ([5]; meropenem 50 mpk + antibody 0.2 mpk, both 1 hour after infection, mice) was “significantly improved protection” and the “synergy with meropenem in lethal pneumonia model” value ([5]; sub-therapeutic antibody dose, % survival of mice) was “strong synergy”.
